According to the supplement of paper PMC12042874:
± gives the uncertainty stated by the source.

Test: amyloid nucleation score (Sup35N fusion, yeast selection) (log enrichment); library NNK1; higher = more nucleation; inactive = no reads after selection
How it was run: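 Peptides of 20 random codons fused to Sup35N were expressed in psi-negative yeast, induced 24 hours with 100 μM copper sulfate, then grown 7 days at 30°C on medium lacking adenine and uracil. Input and output plasmid inserts were Illumina-sequenced. Nucleation score is the DiMSum log enrichment of output over input reads, centred on the mode score of non-aggregating sequences, excluding sequences with under 100 input reads. Random libraries had three technical output replicates.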

Substance	amyloid nucleation score
TFLGGAPVGKIFTLIWLGRG	0.52 ± 0.93
SLQFLSKPHLLRESVSESVD	0.381 ± 0.35
FCVRTEYSGGELAARSLDFA	0.498 ± 0.97
WIVRPSGCGVTTR	-0.414 ± 0.69
MRSMGLCTTGCQIDSRRVRW	0.947 ± 0.61
RVYYSRYYVFDHSYFDTRRG	-1.07 ± 1.3
PGTGPVCQNGDVAF	-0.948 ± 1.7
MSDSG	-0.576 ± 0.81
FYDPALMSITNSD	1.73 ± 0.15
GFLCQSRVLAML	inactive
TGFVWWLFGCGWTLVDRMWF	-0.79 ± 0.69
WAWYLCSPESANFHNLHRLW	0.324 ± 1.1
VKTPTDRSYRLHGNFIGCWA	-0.576 ± 0.38
VWCRNAVDTMLIPMCTTPGY	0.372 ± 0.6
CYDQKILLLLISVTYVRTSD	-0.34 ± 1
FSEVSNWVFLNIYYVAFF	0.934 ± 0.25
SPGMWGMGVDNSKSGRWALR	1.89 ± 0.28
CRSYNYLIVMKDLLPSALKT	1.23 ± 0.36
IRLGHIQVFVSGRFENRLIF	0.257 ± 0.56
TDRTQTYSTFASRGSDVTVT	0.185 ± 0.35
FLIYVQYTKYSLWAPVFIHR	inactive
YLWLVWEDV	0.721 ± 0.69
PLWLCGGFQQWASGCRSVGL	-1.06 ± 0.49
YRIKGVNWALPLCLALLSLR	0.068 ± 0.61
WHTRDYLKRRL	0.906 ± 0.75

Substance	amyloid nucleation score
KKLNSCF	0.533 ± 0.63
RICPKNCMSISVI	0.305 ± 0.29
VDMNWVITGTNWEFRLRVDA	0.24 ± 0.43
NVYFLPIMA	-1.06 ± 0.54
GFYPHANLTMFRALNKCGEV	0.501 ± 0.53
ISTSLSTGLGKLRESWLTYH	inactive
LGVKFVQDGTINKGHLKR	-0.543 ± 0.63
FLQEVITDLKSVW	3.08 ± 0.12
WYIMGFTNDRVLRNLMCYTC	0.21 ± 0.35
HSLRQKVPM	0.227 ± 0.3
DYGIVGAEVKKCLIL	0.433 ± 0.44
APTRACSNGDMLREE	1.35 ± 0.51
FDVGSFTGIGV	0.115 ± 0.77
REFGLLAWVELLFWATFR	-0.676 ± 0.94
SGKCIFSFE	-0.065 ± 0.34
IQFIDRPDHIARRLVWFRIG	0.351 ± 0.27
DMLRMVRYTVWVSRVRSHGW	3.07 ± 0.079
MKIGIGVFRDREGNSGWL	-0.741 ± 1.4
VLSHVGFKSRMSVTNPGCLD	-0.562 ± 0.81
YNLGQVFSWINDTTSMMCGK	0.567 ± 0.32
LYSIVVKYCYQYLSRACNYN	0.637 ± 0.36
GMDTYLMETLCSTVNLRCHA	-0.604 ± 1
VPFLWLRLCRRCYLTMGCSI	-0.491 ± 0.97
VNCGRMSAGCREVGWVDGES	-0.316 ± 0.89
IFFYRYYNSHASSGERQNGR	0.175 ± 0.56

Substance	amyloid nucleation score
RYHPMG	-0.074 ± 0.93
LCSLTGLGYAMHVYVSLDVQ	0.086 ± 0.5
SRRWNNDLGLFSRERKTTLV	-1.06 ± 1.7
FWTKSGSEEIITMVSTVRWR	-0.749 ± 1.1
NQTNIMCSPNIICSVSGQSG	6.743 ± 0.047
LTSQSLVVNFLLYCTG	1.1 ± 0.85
QMTKNYEWDSTRIACVGLHR	2.68 ± 0.11
GTDVQEWLAYCCAIIYAF	0.332 ± 0.72
KNCAAFLHRHGFEVAQRGTC	-0.337 ± 0.78
WANRVCMCLRTSFYHL	0.004 ± 0.62
AFMSRVGLHW	0.691 ± 0.25
VLLVRSNKSKLDRHRDWSGK	0.466 ± 1.4
SVLIVLMHGMGYQQKTYCRF	0.316 ± 0.48
DGELMAYLSDGNQG	inactive
AQNLDPQWWCLVRCDCYPL	-0.49 ± 0.65
VSPRFGLSSMGNYQKVLVYI	-0.651 ± 1.7
TYEPKGRLPCWCSAQSMGCL	-0.096 ± 0.34
MGLMIMIFWWEDM	-0.82 ± 0.91
YDNWVVGNYGLSAERICRVE	0.085 ± 0.77
IGMRCWTACSSKRFESCRRV	0.743 ± 0.44
KGAGMQTTQCVCKVYKLSWA	0.281 ± 0.24
LSTNDTSR	-0.028 ± 0.53
DKLSNVFLFLTDGCLNFNSF	3.1 ± 0.11
SHNEG	1.34 ± 0.41
AGECRYLLMSVDGYIGLNLV	1.07 ± 0.48

Substance	amyloid nucleation score
TIDERDSAHKSSVFKGLKEI	-0.447 ± 0.33
SSVVL	0.531 ± 0.44
NQMVWMVELWRTVDCVVLNV	-0.17 ± 0.34
MWLFYRWVRSCTCP	-0.042 ± 0.32
INFCRSPMPWNGSALVNLMV	-0.014 ± 0.53
DAHAISINHYRLSQTLSVPW	-0.148 ± 0.35
VRDYAGPFSFPYRSLRSEWQ	0.193 ± 0.56
ESQLVTAYEH	0.324 ± 1.1
PLDHLHLSKWCTSEKDLVV	0.766 ± 0.38
VRSFGWTEFKCVTFFQEWIS	-0.029 ± 0.44
WAVRIVHMRVFFGLPVDW	-0.697 ± 0.58
FYLRSSTNEPRENNVNLALY	-0.345 ± 1.7
FGFVSPGPY	-0.611 ± 0.51
RLYYLGMSGYLRHNPASCVL	-1.56 ± 2.7
MRDLALLAEVLVTD	0.295 ± 0.4
YYPNKLFEYSKWNHAAGRVR	0.085 ± 0.64
WTCLKQEPLAWRWL	-0.093 ± 0.94
FHRNHRINNRMSMAYSC	0.059 ± 0.9
DSIMNGR	0.713 ± 0.74
STVWLSVGALAFARASGRRA	3.74 ± 0.12
SGYLVSSELREFQ	4.28 ± 0.11
PDRDYFLFFTLHCVCSSFAE	inactive
MHRGDVMRSSWNHDGVGTVR	0.048 ± 1.2
SRSSGFAVTYSNTRTKKSKA	-1.77 ± 1.3
HARIS	-0.313 ± 0.79

Substance	amyloid nucleation score
WVRLINSGGQSYFRCGEGRS	0.654 ± 1.2
SVLLKWMSYTKH	2.66 ± 0.15
ACNCHMWV	1.31 ± 0.59
LPTVDMIWIRGFGFQELSWC	inactive
QATYCGLIIPSGLIYPDYTV	-0.442 ± 0.54
GNLLVMVGNMRSIDKC	0.326 ± 0.3
PLSVNLKYVYNLVVDLFGLP	2.61 ± 0.19
SIRTVSLLR	-0.859 ± 0.42
MTSLFLCKVTRM	0.23 ± 0.6
VYWTVDIWVFFVTAC	1.49 ± 0.13
RNFFDLCGTSKRRMRIS	-0.15 ± 0.47
IDGCLPTNRVGSSRSVRGNV	inactive
MYASELSLKPATYSWK	-0.646 ± 0.42
SNTDYCVSVPVLTVAFSVWA	-0.343 ± 0.51
NYETPGRFDKSVSTGEAFQS	-0.868 ± 0.55
NWDGLYVYEYSRFVVASCRN	1.2 ± 0.2
ETHGYFVYVFVCGRWAGMK	-0.114 ± 0.28
ILSNTRSVFYSSN	-0.089 ± 0.38
FFSKNT	-0.041 ± 0.26
YIRGYTIFSNWCFGLASGSA	-0.525 ± 0.83
IFSGSPGLN	5.71 ± 0.076
IIISMFRGAGRIYSF	0.336 ± 0.64
LKTEPHIRLSPLETRPV	0.552 ± 0.77
YDGPLFVTFILI	5.88 ± 0.077
QDLPAISLFTDVQSKPRTFP	0.631 ± 0.95

Substance	amyloid nucleation score
VVSYTVQGGRSSHMANWG	0.35 ± 0.92
AFRTS	-0.203 ± 0.43
DRLSAT	0.272 ± 1.2
HGTVNLIYVNEI	0.133 ± 0.67
YCVKV	0.308 ± 0.62
NFVICNVMDRISWLCVCNLH	4.08 ± 0.076
LYDLNIKWWRGASLVECECL	0.139 ± 0.41
VDVYFTSAMLSRLGLVGAVA	0.862 ± 0.64
ASRFDCEDIFGRTCGYVHYF	-0.113 ± 0.79
AGHYLCGSITNLTA	0.721 ± 0.97
RIDDSIFLDFWM	-0.214 ± 0.4
DVVPSSGFVFMIRTDTLSHN	-0.265 ± 1.2
NLFCRRMSSDWALKSELSNH	0.708 ± 0.36
GYRGLYY	1.38 ± 0.6
EGYVK	1.1 ± 0.53
KMLFGH	-0.085 ± 0.79
DSSWTWKDVV	0.397 ± 1.2
MQLHNGWMLITYKKGTSIIW	-2.3 ± 1.8
MMLGSGFLCLLMYDGVRFLL	-0.839 ± 0.62
PLAHLSRLEESYWPSQTHPS	0.091 ± 0.54
SLILG	0.083 ± 0.3
LCWTIWV	-1.61 ± 2.4
TLSLNGLNP	inactive
RRSGTLDGSGSGSCVRLPPN	-0.172 ± 0.5
NRRVSLCRASCSIMRVKPLG	-0.261 ± 0.56

Substance	amyloid nucleation score
NQMGRRQRVLRSSDSRPTVL	-0.114 ± 0.74
DFCLNGSYFNTLDNSGCSSL	-0.114 ± 0.52
IFSIGW	0.816 ± 0.45
EFTGDRQSYFCLQYSCTSLR	-0.096 ± 1.7
YLKMFV	0.01 ± 0.32
WFRRLVTFSYNGWSYLSD	-0.779 ± 0.73
WCSLGCNYTVLFTLLGMVNT	0.116 ± 0.37
MHCLGLAWALELVSLLC	-0.374 ± 0.77
WCLSG	-0.498 ± 0.48
AEKSFWHSSNPFIALPRTHR	-1 ± 0.93
ERPSRN	0.22 ± 0.93
AEASKYVMYIKARCMQLMRS	-0.931 ± 1.1
FGDWGCRRRNVSA	-0.269 ± 0.37
LSGWHSNLAGRPFPNEMDDG	0.284 ± 0.3
SPAFPP	0.798 ± 0.79
KISVSTVLSLLFGI	1.3 ± 0.76
PATMDLIVVPWITVLKEIN	-0.451 ± 0.89
VVMMWDI	inactive
DLLDLIQISDSLKILNALPE	0.845 ± 0.18
GLVSRIAGLIHEIDGRFWMQ	inactive
ASSSGFSMGLCQMYNGTFMG	-1.21 ± 0.94
KLNVFDLVNRAKVGHCGSSG	0.026 ± 0.51
LILKYAVGRRQARVVKRNSR	-0.575 ± 1.4
NICVFNEFKVYNAYTVYWGW	5.801 ± 0.054
